Like-named read-outs stand apart in the source and are kept apart here. Each block holds one molecule with its values, some of them ahead of it. No end group written: not given here.
Tests used:
human PTH-1 receptor [1] = biological target: T1, human PTH-1 receptor (human, UniProt Q03431 27-593); assay: radioligand binding, HKRK B7 cells (human PTH-1 receptor)
T1 sequence (looked up): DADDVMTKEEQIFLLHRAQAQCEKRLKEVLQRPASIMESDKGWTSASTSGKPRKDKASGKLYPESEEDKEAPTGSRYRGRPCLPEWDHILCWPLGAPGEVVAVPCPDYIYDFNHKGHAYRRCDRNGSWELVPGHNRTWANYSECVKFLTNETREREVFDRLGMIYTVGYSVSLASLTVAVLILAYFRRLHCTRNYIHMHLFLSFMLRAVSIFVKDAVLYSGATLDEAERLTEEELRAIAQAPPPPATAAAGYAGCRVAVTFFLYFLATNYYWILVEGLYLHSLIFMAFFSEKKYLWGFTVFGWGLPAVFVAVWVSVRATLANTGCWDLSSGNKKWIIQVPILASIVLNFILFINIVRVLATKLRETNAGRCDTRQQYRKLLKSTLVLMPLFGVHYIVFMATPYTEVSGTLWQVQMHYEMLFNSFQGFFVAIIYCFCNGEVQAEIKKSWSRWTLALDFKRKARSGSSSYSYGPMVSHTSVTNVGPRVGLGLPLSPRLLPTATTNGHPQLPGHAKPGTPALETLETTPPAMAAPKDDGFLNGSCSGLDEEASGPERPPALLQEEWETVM

human PTH-1 receptor [2] = biological target: T1, human PTH-1 receptor; assay: cell-based or functional assay
human PTH-1 receptor [3] = biological target: T1, human PTH-1 receptor; assay: cell-based or functional assay; remark: listed apart in the source
rat PTH-1 receptor [4] = biological target: T2, rat PTH-1 receptor (rat, UniProt P25961 27-591); assay: radioligand competition, EW5 cells (rat PTH-1 receptor)
T2 construct: whole, on cells; recombinant receptor on cells; also called rat PTH/PTHrP receptor
T2 sequence (looked up): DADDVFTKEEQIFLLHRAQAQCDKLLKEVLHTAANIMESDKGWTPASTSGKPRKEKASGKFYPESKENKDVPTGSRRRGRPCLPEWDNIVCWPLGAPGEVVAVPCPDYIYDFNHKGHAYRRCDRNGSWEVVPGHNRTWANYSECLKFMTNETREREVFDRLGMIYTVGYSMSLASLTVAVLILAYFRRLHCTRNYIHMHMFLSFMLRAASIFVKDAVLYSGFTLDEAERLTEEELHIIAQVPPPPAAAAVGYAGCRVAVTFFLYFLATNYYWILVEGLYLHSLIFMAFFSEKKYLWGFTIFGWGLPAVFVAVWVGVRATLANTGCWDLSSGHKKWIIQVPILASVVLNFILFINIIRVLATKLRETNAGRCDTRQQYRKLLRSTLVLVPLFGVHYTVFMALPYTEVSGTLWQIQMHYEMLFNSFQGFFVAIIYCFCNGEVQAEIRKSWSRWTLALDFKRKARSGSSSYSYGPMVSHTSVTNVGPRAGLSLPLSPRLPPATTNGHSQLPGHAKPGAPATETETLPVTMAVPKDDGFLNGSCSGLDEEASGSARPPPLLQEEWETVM
Description: (§1) Cell layers were washed three times before solubilization for determination of cell-associated radioactivity.

human PTH-1 receptor [5] = biological target: T1, human PTH-1 receptor; assay: cell-based or functional assay; remark: listed apart in the source
human PTH-1 receptor [6] = biological target: T1, human PTH-1 receptor; assay: radioligand competition, HKRK B7 cells (human PTH-1 receptor)
Description: as §1

rat PTH-1 receptor [7] = biological target: T2, rat PTH-1 receptor; assay: radioligand competition, EW5 cells (rat) against HKRK B7 cells (human)
Description: as §1

rat PTH-1 receptor [8] = biological target: T2, rat PTH-1 receptor; assay: cell-based or functional assay

Molecule: desamino[Gly^1]hPTH-(1-34) (from UniProt P01270 32-65) (peptide)
PLC Activity (% Basal), 1000 nM peptide, transfected HEK-293 cells (human PTH-1 receptor [2]): 108 % Basal

Molecule: desamino[Ala^1]hPTH-(1-34) (from UniProt P01270 32-65) (peptide)
PLC Activity (% Basal), 1000 nM peptide, transfected HEK-293 cells (human PTH-1 receptor [2]): 106 % Basal

B2: hPTH-(1-28) (peptide)
peptide: SVSEIQLMHNLGKHLNSMERVEWLRKKL-NH2
binding result (rat PTH-1 receptor [4]): binds
PLC Activity (% Basal), 1000 nM peptide, transfected HEK-293 cells (human PTH-1 receptor [5]): 305 % Basal
IC50 (human PTH-1 receptor [6]): 1000 nM
EC50 of AC activation, HKRK B7 cells (human PTH-1 receptor [3]): 1 nM
EC50 of PLC activation, HKRK B7 cells (human PTH-1 receptor [3]): 6000 nM
fold loss of PLC potency against hPTH-(1-29) (human PTH-1 receptor [3]): ~5 fold

B3: [Ala^1,Arg^19]hPTH-(1-28) (peptide)
peptide: AVSEIQLMHNLGKHLNSMRRVEWLRKKL-NH2
EC50 for PLC activation, HKRK B7 cells (human PTH-1 receptor [3]): 200 nM
fold improvement of EC50 for PLC activation over [Ala^1]hPTH-(1-28) (human PTH-1 receptor [3]): 5 fold

B4: [Ala^1]hPTH-(1-28) (peptide)
peptide: AVSEIQLMHNLGKHLNSMERVEWLRKKL-NH2
EC50 for PLC activation, HKRK B7 cells (human PTH-1 receptor [3]): 1000 nM

B5: [Arg^19]hPTH-(1-28) (peptide)
peptide: SVSEIQLMHNLGKHLNSMRRVEWLRKKL-NH2
notes: Analog of hPTH-(1-28)
IC50 (human PTH-1 receptor [6]): 100 nM
EC50 of PLC activation, HKRK B7 cells (human PTH-1 receptor [3]): 300 nM

B9: [Ala^1,Arg^19]hPTH-(1-27) (peptide)
peptide: AVSEIQLMHNLGKHLNSMRRVEWLRKK-NH2
fold improvement of EC50 for AC activation over hPTH-(1-27) (human PTH-1 receptor [3]): 10 fold

B10: [Gly^1]hPTH-(1-28) (peptide)
peptide: GVSEIQLMHNLGKHLNSMERVEWLRKKL-NH2
notes: Analog of hPTH-(1-28)
fold enhancement of binding affinity by the Gly^1 substitution (against hPTH-(1-28)) (rat PTH-1 receptor [4]): 2 fold
fold impairment of binding by the Gly^1 substitution (against hPTH-(1-28)) (human PTH-1 receptor [6]): ~3 fold

B11: [Gly^1,Arg^19]hPTH-(1-28) (peptide)
peptide: GVSEIQLMHNLGKHLNSMRRVEWLRKKL-NH2
notes: Analog of hPTH-(1-28)
fold enhancement of binding affinity by the Gly^1 substitution (against [Arg^19]hPTH-(1-28)) (rat PTH-1 receptor [4]): 2 fold
fold impairment of binding affinity relative to hPTH-(1-34) (rat PTH-1 receptor [4]): ~6 fold
fold lower binding affinity than hPTH-(1-34) (rat PTH-1 receptor [4]): 7 fold
fold greater binding affinity than for the human PTH-1 receptor (rat PTH-1 receptor [7]): 10 fold
fold impairment of binding by the Gly^1 substitution (against [Arg^19]hPTH-(1-28)) (human PTH-1 receptor [6]): ~3 fold
fold improvement in binding affinity over [Gly^1]hPTH-(1-28) (human PTH-1 receptor [6]): 5 fold
fold lower binding affinity than hPTH(1-34) (human PTH-1 receptor [6]): 30 fold
fold reduction of binding relative to hPTH-(1-34) (human PTH-1 receptor [6]): ~40 fold
fold reduction of PLC potency, HKRK B7 cells (human PTH-1 receptor [3]): ~100 fold
selectivity for activation of AC (vs. PLC), relative to hPTH-(1-34) (human PTH-1 receptor [3]): > 40 fold
fold impairment of EC50 for AC relative to hPTH-(1-34), EW5 cells (rat PTH-1 receptor [8]): ~6 fold
selectivity for AC vs. PLC (rat PTH-1 receptor [8]): > 10 fold

The next lines start with the values.

cell-associated radioactivity, basal (no competitor) (human PTH-1 receptor [1]): 25500 cpm/well
Molecule: ^125I-[Nle^8,21, Tyr^34]rat PTH-(1-34) (from UniProt P04089 32-65) (peptide)

PLC activation, percent of basal at 1000 nM peptide, HKRK B7 cells (percent of basal) (human PTH-1 receptor [2]): 101
Molecule: desamino-hPTHrP(1-36) (from UniProt P12272 37-72) (peptide)

PLC activity, percent of basal at 1000 nM peptide (percent of basal) (human PTH-1 receptor [2]): 105
Molecule: [Tyr^0]hPTH-(1-34) (from UniProt P01270 32-65) (peptide)

PLC activation, percent of basal at 1000 nM peptide, HKRK B7 cells (percent of basal) (human PTH-1 receptor [2]): 178
Molecule: hPTHrP(1-36) (from UniProt P12272 37-72) (peptide)

EC50 of PLC activation (IP3 formation), HKRK B7 cells (human PTH-1 receptor [3]): 1000 nM
B1: hPTH-(1-29) (peptide, UniProt P01270 32-60, looked up)
peptide: SVSEIQLMHNLGKHLNSMERVEWLRKKLQ-NH2

PLC Activity (% Basal), 1000 nM peptide, transfected HEK-293 cells (human PTH-1 receptor [5]): 854 % Basal
B6: hPTH-(1-34) (peptide)
peptide: SVSEIQLMHNLGKHLNSMERVEWLRKKLQDVHNY-NH2

PLC Activity (% Basal), 1000 nM peptide, transfected HEK-293 cells (human PTH-1 receptor [5]): 95 % Basal
EC50 of AC activation, HKRK B7 cells (human PTH-1 receptor [3]): 100 nM
fold loss of AC activity on removal of Leu^28 (human PTH-1 receptor [3]): ~100 fold
B7: hPTH-(1-27) (peptide)
peptide: SVSEIQLMHNLGKHLNSMERVEWLRKK-NH2

PLC Activity (% Basal), 1000 nM peptide, transfected HEK-293 cells (human PTH-1 receptor [5]): 88 % Basal
B8: hPTH-(2-34) (peptide)
peptide: VSEIQLMHNLGKHLNSMERVEWLRKKLQDVHNY-NH2

fold loss of AC potency against hPTH-(1-27) (human PTH-1 receptor [3]): 10 fold
B12: hPTH-(1-26) (peptide)
peptide: SVSEIQLMHNLGKHLNSMERVEWLRK-NH2

Reference: US20040176568A1 (GENERAL HOSPITAL, published 2004)
